# Test results published in paper PMC9051516.
# Experiments:
# [1] = target: TGBp1-cYFP (cowpea mild mottle virus triple gene block protein 1 fused to the C-terminal half of YFP) (cowpea mild mottle virus (isolate CPMMV_AH_SZ)); test: split reporter (BiFC, NanoBiT); BiFC of the TGBp1 and TGBp3 YFP halves with TGBp2-Flag co-expressed in N. benthamiana leaves; confocal microscopy 48 h after infiltration; mean intensity of whole images by ImageJ
# [2] = target: TGBp1-cYFP (cowpea mild mottle virus triple gene block protein 1 fused to the C-terminal half of YFP) (cowpea mild mottle virus (isolate CPMMV_AH_SZ)); test: split reporter (BiFC, NanoBiT); BiFC: nYFP and cYFP fusions co-expressed by agroinfiltration in N. benthamiana leaves; YFP signal by confocal microscopy 48 h after infiltration; mean intensity of whole images by ImageJ
substance,measurement,setting,value
TGBp3-nYFP (cowpea mild mottle virus triple gene block protein 3 fused to the N-terminal half of YFP) (natural protein),"mean fluorescence intensity of the BiFC signal, with TGBp2-Flag co-expressed",[1],95.9
same,"mean fluorescence intensity of the BiFC signal, without TGBp2-Flag",[2],75.7
